The text below walks through data of the Immune Epitope Database (IEDB).

pIC50, pKd: −log10 of the molar value.

One assay has as its target HLA-A*02:03. The experiment in a line: IEDB peptide-MHC binding, purified MHC/competitive/radioactivity; filed as Kd, often an IC50 or EC50 that approximates it; ≥ and ≤ were set here for values at or beyond the usual limits of such assays.
The next assay addresses HLA-A*02:17. The description is as above.
Assay [1] has as its target HLA-A*02:01. The description is as above.
For the next assay, the target named is HLA-A*11:01. Put plainly: IEDB peptide-MHC binding, purified MHC/competitive/fluorescence; ≥ and ≤ were set here for values at or beyond the usual limits of such assays. Conditions: source organism: Zaire ebolavirus.
Assay [2] deals with HLA-A*03:01. The description is as above.
Assay [3] addresses HLA-A*03:01. Put plainly: IEDB peptide-MHC binding, purified MHC/competitive/fluorescence; filed as Kd, often an IC50 or EC50 that approximates it; ≥ and ≤ were set here for values at or beyond the usual limits of such assays.
The target of a further assay is HLA-A*68:02. The experiment in a line: IEDB peptide-MHC binding, purified MHC/competitive/radioactivity; filed as Kd, often an IC50 or EC50 that approximates it; ≥ and ≤ were set here for values at or beyond the usual limits of such assays.
For the next assay, the target named is HLA-B*07:02. The assay is described as above. Conditions: source organism: Dengue virus 2 Jamaica/1409/1983.
The target in assay [4] is HLA-B*15:01. Put plainly: IEDB peptide-MHC binding, purified MHC/competitive/fluorescence; ≥ and ≤ were set here for values at or beyond the usual limits of such assays.
In the next assay the target is HLA-A*24:02. The description is as above. Conditions: source organism: Zaire ebolavirus.
Assay [5] deals with HLA-A*02:01. The assay is described as above.
Another assay has as its target HLA-A*02:06. Put plainly: IEDB peptide-MHC binding, purified MHC/competitive/radioactivity; filed as Kd, often an IC50 or EC50 that approximates it; ≥ and ≤ were set here for values at or beyond the usual limits of such assays.
A further assay has as its target HLA-B*57:01. The experiment in a line: IEDB peptide-MHC binding, purified MHC/competitive/fluorescence; filed as Kd, often an IC50 or EC50 that approximates it; ≥ and ≤ were set here for values at or beyond the usual limits of such assays. The note with it: source organism: Homo sapiens.
Another assay has as its target HLA-B*18:01. Described as above. Conditions: source organism: Homo sapiens.
Another assay deals with HLA-B*39:01. The description is as above. The note with it: source organism: Homo sapiens.
Another assay has as its target HLA-A*69:01. Described as above. Conditions: source organism: Homo sapiens.
The target in assay [6] is HLA-A*02:01. Described as above. The note with it: source organism: Homo sapiens.
The next assay has as its target HLA-B*46:01. The description is as above. The note with it: source organism: Homo sapiens.
Another assay concerns the target HLA-B*51:01. The description is as above. The note with it: source organism: Homo sapiens.
For another assay, the target named is HLA-B*27:03. The description is as above. Conditions: source organism: Homo sapiens.
In the next assay the target is HLA-A*01:01. Put plainly: IEDB peptide-MHC binding, purified MHC/direct/fluorescence; filed as Kd, often an IC50 or EC50 that approximates it; ≥ and ≤ were set here for values at or beyond the usual limits of such assays. The note with it: source organism: Homo sapiens.
Assay [7] has as its target HLA-B*15:01. Put plainly: IEDB peptide-MHC binding, purified MHC/competitive/radioactivity; filed as Kd, often an IC50 or EC50 that approximates it; ≥ and ≤ were set here for values at or beyond the usual limits of such assays. Conditions: source organism: Dengue virus 3 Sri Lanka/1266/2000.
Another assay concerns the target HLA-B*08:01. The assay is described as above. Conditions: source organism: Dengue virus 3 Sri Lanka/1266/2000.
[8] abbreviates: source organism: Dengue virus 3 Sri Lanka/1266/2000.
[9] abbreviates: source organism: Zaire ebolavirus.
[10] abbreviates: source organism: Dengue virus 2 Jamaica/1409/1983.
Where [11] appears, read: source organism: Dengue virus 1 Brazil/97-11/1997.
Setting [12] is: source organism: Dengue virus 4 Philippines/H241/1956.
Where [13] appears, read: source organism: Dengue virus 3 Martinique/1243/1999.
Where [14] appears, read: source organism: Dengue virus 3 China/80-2/1980.

By pKd is commonly meant the negative decadic logarithm of the Kd, by convention in mol/L. For LMMILPAALA, the values for the pKd with HLA-A*02:03 (setting [8]), with HLA-A*02:17 (setting [8]) and with HLA-A*02:01 [1] (setting [8]) were 7.01, 5.74 and 7.96, respectively.

What is called pIC50 is −log10 of the IC50, conventionally taken in molar units. A high value points to a low IC50. With LQLPRDRFK, the pIC50 in the assay with HLA-A*11:01 is 5.75; with HLA-A*03:01 [2] (setting [9]), 5.27.

MMYTVSLGH: in the assay with HLA-A*03:01 [3] (source organism: Vibrio parahaemolyticus AQ3810), the pKd is 8.92.

For MVSILASSL, the pKd with HLA-A*68:02 (setting [10]) was 6.87; with HLA-B*07:02, 6.00.

In turn, MVTRFESLK had a pKd in the assay with HLA-A*03:01 [3] (source organism: Influenza A virus (A/Swine/Minnesota/55551/2000(H1N2))) of 6.79.

In the case of NTTGKLIWK, the pIC50 with HLA-A*11:01 was 5.98; in the assay with HLA-A*03:01 [2] (setting [9]), 4.61.

In the case of QQTNAMVTL, the pIC50 is at most 4.12 with HLA-B*15:01 [4] (setting [9]), 4.23 with HLA-A*24:02 and 4.41 in the assay with HLA-A*02:01 [5] (setting [9]).

For QTNAMVTLR, the pIC50 with HLA-A*11:01 is 5.92; with HLA-A*03:01 [2] (setting [9]), 4.79.

In the case of QVFGTAYGV, the figures for the pKd in the assay with HLA-A*68:02 (setting [11]) and in the assay with HLA-A*02:06 (setting [11]) were 9.02 and 8.14, respectively.

With QVPKLLLWF, the pIC50 with HLA-B*15:01 [4] (source organism: Variola virus) is at most 3.43; in the assay with HLA-A*02:01 [5] (source organism: Variola virus), 5.69.

Regarding RLITVNPIV, the pKd is 7.20 with HLA-A*02:03 (setting [10]) and 6.21 in the assay with HLA-A*02:17 (setting [10]).

As to SKRERQLAK, the pIC50 in the assay with HLA-A*03:01 [2] (source organism: Vaccinia virus Copenhagen) was 4.52.

In the case of TLIASLVMLL, the results for the pKd with HLA-A*02:03 (setting [12]), with HLA-A*02:17 (setting [12]) and in the assay with HLA-A*02:01 [1] (setting [12]) were 7.54, 7.24 and 7.31, respectively.

For the sequence TVAANEMGL, the pKd with HLA-A*68:02 (setting [11]) was 7.18.

Turning to VAGLITGGR, the pIC50 is 4.58 in the assay with HLA-A*11:01, at most 3.18 with HLA-A*02:01 [5] (setting [9]) and at most 3.98 with HLA-A*03:01 [2] (setting [9]).

Consider VIFILLMLV, for which the pKd with HLA-A*02:03 (setting [13]) is 6.77; with HLA-A*02:17 (setting [14]), 6.04; with HLA-A*02:06 (setting [13]) it was 5.63.

As for VLWEGGHDL, the pKd with HLA-A*02:17 (setting [12]) was 6.34; with HLA-A*02:01 [1] (setting [12]) it was 7.84.

With VQRQIQVHA, the pIC50 in the assay with HLA-B*15:01 [4] (setting [9]) was 4.87; with HLA-A*02:01 [5] (setting [9]), 4.34.

For VTSSVSSGY, the pKd with HLA-B*57:01, with HLA-B*18:01, in the assay with HLA-B*39:01, with HLA-A*69:01, with HLA-A*02:01 [6] and with HLA-B*46:01 was at most 4.70 in each case. Further, the pKd is at most 4.70 with HLA-B*51:01, at most 4.70 in the assay with HLA-B*27:03 and 8.27 with HLA-A*01:01.

As to WMTTEDMLAV, the pKd is 7.69 with HLA-A*02:03 (setting [10]), 5.60 with HLA-A*02:17 (setting [10]), 7.08 with HLA-A*02:01 [1] (setting [10]) and 7.60 in the assay with HLA-A*02:06 (setting [10]).

YLALLAAFKV: the pKd with HLA-A*02:03 (setting [10]) was 7.82; with HLA-A*02:17 (setting [10]), 7.21; with HLA-A*02:01 [1] (setting [10]), 8.79; with HLA-A*02:06 (setting [10]), 8.02.

Consider YQLWTALVSL, for which the pKd was 6.72 with HLA-B*15:01 [7], 7.04 with HLA-A*02:17 (setting [14]), 8.23 in the assay with HLA-A*02:06 (setting [8]) and 6.01 in the assay with HLA-B*08:01.

Regarding YVSAIAQAKA, in the assay with HLA-A*68:02 (setting [11]), the pKd is 7.66.
